According to patent US20220089765A1, “CD31 COMPETITORS AND USES THEREOF” (ENCEFA, priority 2019, published 2022):

System: midbrain dopaminergic (TH+) neurons
Assay: MPP+ intoxication model in midbrain cell cultures, survival of DA (TH+) neurons
Type: cell-based, Wistar rat
Method: For this purpose, spontaneously occurring DA cell death was prevented by a treatment combining depolarizing concentrations of K^+ (30 mM) and MK801 (5 μM), a glutamate receptor antagonist used to prevent unwanted excitotoxic insult. The cultures were then exposed to 3 μM MPP between 5 and 7 days in vitro (DIV) to achieve a loss of approximately 50% of DA neurons.
Animals were treated in accordance with the Guide for the Care and Use of Laboratory Animals (National Research Council, 1996), European Directive 86/609, and the guidelines of the local institutional animal care and use committee. Cultures were prepared from the ventral mesencephalon of gestational age 15.5 Wistar rat embryos (Janvier Breeding Center, Le Genest St Isle, France). Dissociated cells in suspension obtained by mechanical trituration of midbrain tissue pieces were seeded at a density of 1.2-1.5×10^5 cells/cm^2 onto tissue culture supports precoated with 1 mg/mL polyethylenimine diluted in borate buffer pH 8.3 as described (Michel et al., 1997. J Neurochem. 69(4):1499-507). The cultures were then maintained in N5 medium supplemented with 5 mM glucose, 5% horse serum, and 0.5% fetal calf serum, except for the first 3 DIV, when the concentration of fetal calf serum was 2.5% to favor initial maturation of the cultures (Guerreiro et al., 2008. Mol Pharmacol. 74(4):980-9). They were fed daily by replacing 70% of the medium. Routinely, mesencephalic cultures were established on Nunc 24-well culture plates (Thermofischer Scientific, Rochester, N.Y.). Note that these cultures contain tyrosine hydroxylase (TH)^+ neurons that were exclusively dopaminergic (Traver et al., 2006. Mol Pharmacol. 70(1):30-40). TH^+ neurons represented approximately 1-2% of the total number of neuronal cells present in these cultures. The evaluation of the survival of DA neurons was performed by counting cells immunopositive for TH as described (Toulorge et al., 2011. Faseb J. 25(8):2563-73).
Treatments with MPP were performed in cultures where the spontaneous death process was prevented by long-term exposure to depolarizing concentrations of K^+ (30 mM), in the presence of the glutamate receptor antagonist MK801 (5 μM) to prevent unwanted excitotoxic insults as described previously (Douhou et al., 2001. J Neurochem. 78(1): 163-74). Treatments with MPP and potential neuroprotective molecules were carried out between 5 and 7 DIV.
The cultures were fixed for 12 min using 4% formaldehyde in Dulbecco's phosphate-buffered saline (PBS), then washed twice with PBS before an incubation step at 4° C. for 24 h with the following antibodies. A monoclonal anti-TH antibody diluted 1/5000 (ImmunoStar, Inc., Hudson, Wis.) was used to assess the survival of DA neurons. Antibody was diluted in PBS containing 0.2% Triton X-100. Detection of the primary antibodies was performed with an Alexa Fluor-488 conjugate of an anti-mouse IgG antibody.

B1: Clone B08: anti-human CD38 antibody, HCVR SEQ ID NO: 33 and LCVR SEQ ID NO: 39 (antibody, V domains shown)
VH: EVQLVESGGSLVKPGGSLRLSCAASGFTFSNYYMNWVRQAPGKGLEWISSISGSSRSIYYADFVKGRFTISRDNAKNSLYLQMNSLRAEDTAVYYCVRSSDDYYYDYGMDVWGRGTLVTVSS
VL: QSVLTQPASVSGSPGQSITISCAGTSSDVGGSYSVSWYQQHPGKAPKLMIYDDSNRPSGVSNRFSGSKSGNTASLTISGLQAEDEADYYCSSYTDYSTRVFGGGTKL
modifications: HCVR B08; LCVR B08
neuroprotective effect against MPP+-induced DA cell death, compared with reference clone HB7 (3 μM MPP+ between 5 and 7 DIV, each clone and HB7 0.5 μg/mL): stronger neuroprotective effect
neuroprotective effect in the presence of the lysosomal exocytosis inhibitor vacuolin-1 (3 μM MPP+, test substance 1 μg/mL, vacuolin-1 10 μM): antagonized
